Experimental data from the supplement of paper PMC5998384.

Tests used:
HeLa Kyoto [1] = assay: solubility in G1/S (NP-40 vs SDS abundance) (log2 ratio); higher = more soluble; settings: cell cycle stage: G1/S
HeLa Kyoto [2] = assay: melting temperature (median over replicates), in situ; higher = more thermally stable
HeLa Kyoto [3] = assay: solubility change mitosis vs G1/S (difference of NP-40 vs SDS log2 ratios) (log2 ratio difference); higher = more soluble in mitosis
HeLa Kyoto [4] = assay: thermal stability score vs G1/S (z-score of summed log2 fold changes over temperatures); higher = more thermally stable than in G1/S
[5] = cell cycle stage: early G1 (4.5 h after nocodazole release)
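Wherever melting temperature (median over replicates), in situ is given: HeLa Kyoto cells synchronized by double thymidine or nocodazole block, proteins quantified by TMT10plex mass spectrometry, three independent biological replicates.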
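Wherever solubility change mitosis vs G1/S (difference of NP-40 vs SDS log2 ratios) is given: synchronized HeLa Kyoto cells (double thymidine block for G1/S, nocodazole release for mitosis), protein amounts in NP-40 versus SDS lysates quantified by mass spectrometry, three biological replicates.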
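Wherever solubility in G1/S (NP-40 vs SDS abundance) is given: HeLa Kyoto cells arrested at G1/S by double thymidine block, proteins quantified by TMT10plex mass spectrometry in mild NP-40 versus SDS extracts, three biological replicates.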
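Wherever thermal stability score vs G1/S (z-score of summed log2 fold changes over temperatures) is given: synchronized HeLa Kyoto cells, proteins quantified by TMT10plex mass spectrometry, three biological replicates, mitosis taken 0.5 h after nocodazole release, G1/S directly after double thymidine block.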

Sequence	solubility in G1/S (log2) (HeLa Kyoto [1])	melting temperature (HeLa Kyoto [2]; cell cycle stage: G1/S) [°C]	melting temperature (HeLa Kyoto [2]; cell cycle stage: mitosis) [°C]	solubility change mitosis (log2) (HeLa Kyoto [3])	thermal stability score (HeLa Kyoto [4]; [5])	thermal stability score (HeLa Kyoto [4]; cell cycle stage: mitosis)
MDETSPLVSPERAQPPDYTFPSGSGAHFPQVPGGAVRVAAAAGSGPSPPGSPGHDRERQPLLDRARGAAAQGQTQTVAAQAQALAAQAAAAAHAAQAHRERNEFPEDPEFEAVVRQAELAIERCIFPERIYQGSSGSYFVKDPQGRIIAVFKPKNEEPYGHLNPKWTKWLQKLCCPCCFGRDCLVLNQGYLSEAGASLVDQKLELNIVPRTKVVYLASETFNYSAIDRVKSRGKRLALEKVPKVGQRFNRIGLPPKVGSFQLFVEGYKDADYWLRRFEAEPLPENTNRQLLLQFERLVVLDYIIRNTDRGNDNWLIKYDCPMDSSSSRDTDWVVVKEPVIKVAAIDNGLAFPLKHPDSWRAYPFYWAWLPQAKVPFSQEIKDLILPKISDPNFVKDLEEDLYELFKKDPGFDRGQFHKQIAVMRGQILNLTQALKDNKSPLHLVQMPPVIVETARSHQRSSSESYTQSFQSRKPFFSWW [PI4K2A]	0.202	53.9	53.6	-0.137	1.81	-1.09
MSSPSPGKRRMDTDVVKLIESKHEVTILGGLNEFVVKFYGPQGTPYEGGVWKVRVDLPDKYPFKSPSIGFMNKIFHPNIDEASGTVCLDVINQTWTALYDLTNIFESFLPQLLAYPNPIDPLNGDAAAMYLHRPEEYKQKIKEYIQKYATEEALKEQEEGTGDSSSESSMSDFSEDEAQDMEL [UBE2H]	-0.0237	52	52.4	-0.126	0.268	0.877
MLERRCRGPLAMGLAQPRLLSGPSQESPQTLGKESRGLRQQGTSVAQSGAQAPGRAHRCAHCRRHFPGWVALWLHTRRCQARLPLPCPECGRRFRHAPFLALHRQVHAAATPDLGFACHLCGQSFRGWVALVLHLRAHSAAKRPIACPKCERRFWRRKQLRAHLRRCHPPAPEARPFICGNCGRSFAQWDQLVAHKRVHVAEALEEAAAKALGPRPRGRPAVTAPRPGGDAVDRPFQCACCGKRFRHKPNLIAHRRVHTGERPHQCPECGKRFTNKPYLTSHRRIHTGEKPYPCKECGRRFRHKPNLLSHSKIHKRSEGSAQAAPGPGSPQLPAGPQESAAEPTPAVPLKPAQEPPPGAPPEHPQDPIEAPPSLYSCDDCGRSFRLERFLRAHQRQHTGERPFTCAECGKNFGKKTHLVAHSRVHSGERPFACEECGRRFSQGSHLAAHRRDHAPDRPFVCPDCGKAFRHKPYLAAHRRIHTGEKPYVCPDCGKAFSQKSNLVSHRRIHTGERPYACPDCDRSFSQKSNLITHRKSHIRDGAFCCAICGQTFDDEERLLAHQKKHDV [REPIN1]	-0.0762	54.4	52.9	-0.0234	-0.836	-2.05
MAQVLRGTVTDFPGFDERADAETLRKAMKGLGTDEESILTLLTSRSNAQRQEISAAFKTLFGRDLLDDLKSELTGKFEKLIVALMKPSRLYDAYELKHALKGAGTNEKVLTEIIASRTPEELRAIKQVYEEEYGSSLEDDVVGDTSGYYQRMLVVLLQANRDPDAGIDEAQVEQDAQALFQAGELKWGTDEEKFITIFGTRSVSHLRKVFDKYMTISGFQIEETIDRETSGNLEQLLLAVVKSIRSIPAYLAETLYYAMKGAGTDDHTLIRVMVSRSEIDLFNIRKEFRKNFATSLYSMIKGDTSGDYKKALLLLCGEDD [ANXA5]	0.363	49.4	49.4	0.0486	5.64	5.5
